Target: His-E-cadherin fusion protein (UniProt P12830)
Assay: MST; RED-NHS-labelled His-E-cadherin at constant concentration (1 µM) with 2-fold serial dilutions of GST-KRT18 in MST-optimized buffer; 15 min at room temperature; Monolith NT.115; 20 and 40% MST power

UniProt P12830, sequence (P12830 155-882): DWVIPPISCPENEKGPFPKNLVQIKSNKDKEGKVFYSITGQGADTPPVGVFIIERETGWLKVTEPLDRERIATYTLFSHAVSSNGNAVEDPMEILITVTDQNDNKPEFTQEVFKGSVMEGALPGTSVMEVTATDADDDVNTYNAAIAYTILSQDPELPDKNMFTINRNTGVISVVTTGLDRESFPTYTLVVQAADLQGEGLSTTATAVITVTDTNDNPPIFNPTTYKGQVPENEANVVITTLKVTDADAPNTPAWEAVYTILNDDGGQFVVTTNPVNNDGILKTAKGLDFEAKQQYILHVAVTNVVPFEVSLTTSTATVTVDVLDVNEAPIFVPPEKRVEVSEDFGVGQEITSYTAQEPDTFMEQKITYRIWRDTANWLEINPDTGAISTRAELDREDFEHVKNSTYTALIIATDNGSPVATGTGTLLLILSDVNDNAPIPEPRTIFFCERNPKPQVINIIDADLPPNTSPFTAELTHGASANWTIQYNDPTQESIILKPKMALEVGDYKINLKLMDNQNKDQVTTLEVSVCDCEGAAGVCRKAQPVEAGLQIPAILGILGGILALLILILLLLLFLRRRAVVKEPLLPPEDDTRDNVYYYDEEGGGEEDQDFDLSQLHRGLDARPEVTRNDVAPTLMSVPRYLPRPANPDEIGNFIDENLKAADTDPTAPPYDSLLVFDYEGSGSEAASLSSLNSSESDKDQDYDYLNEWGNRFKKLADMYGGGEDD

Kd: 5.6 µM
B1: GST-KRT18 fusion protein (natural protein)
chain: MSFTTRSTFSTNYRSLGSVQAPSYGARPVSSAASVYAGAGGSGSRISVSRSTSFRGGMGSGGLATGIAGGLAGMGGIQNEKETMQSLNDRLASYLDRVRSLETENRRLESKIREHLEKKGPQVRDWSHYFKIIEDLRAQIFANTVDNARIVLQIDNARLAADDFRVKYETELAMRQSVENDIHGLRKVIDDTNITRLQLETEIEALKEELLFMKKNHEEEVKGLQAQIASSGLTVEVDAPKSQDLAKIMADIRAQYDELARKNREELDKYWSQQIEESTTVVTTQSAEVGAAETTLTELRRTVQSLEIDLDSMRNLKASLENSLREVEARYALQMEQLNGILLHLESELAQTRAEGQRQAQEYEALLNIKVKLEAEIATYRRLLEDGEDFNLGDALDSSNSMQTIQKTTTRRIVDGKVVSETNDTKVLRH
